Consider one substance from US20150093375A1.

The experiment addresses Fzd4 (Homo sapiens (Human)) (UniProt Q9ULV1). Nature of the experiment: cell-based or functional assay.
UniProt Q9ULV1, sequence (Q9ULV1 37-537 limits assumed, form in doubt): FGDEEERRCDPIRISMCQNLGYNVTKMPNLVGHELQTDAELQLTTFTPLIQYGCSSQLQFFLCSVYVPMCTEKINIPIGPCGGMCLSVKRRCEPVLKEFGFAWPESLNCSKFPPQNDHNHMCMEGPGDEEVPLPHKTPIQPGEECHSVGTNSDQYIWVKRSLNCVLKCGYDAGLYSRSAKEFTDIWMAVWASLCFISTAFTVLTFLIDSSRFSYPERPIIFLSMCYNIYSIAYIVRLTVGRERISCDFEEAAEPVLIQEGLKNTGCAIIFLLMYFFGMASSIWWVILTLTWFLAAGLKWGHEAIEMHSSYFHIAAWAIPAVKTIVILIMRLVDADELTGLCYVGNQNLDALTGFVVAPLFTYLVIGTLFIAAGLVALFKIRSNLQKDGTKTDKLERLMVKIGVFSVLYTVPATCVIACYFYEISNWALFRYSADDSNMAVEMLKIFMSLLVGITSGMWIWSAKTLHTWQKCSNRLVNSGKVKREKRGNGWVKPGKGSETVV

As for recombinant Norrin (ligand), the Topflash reporter activity (firefly divided by renilla), cells overexpressing TSPAN12 against control cells, 10 nM recombinant Norrin was 4 fold.
